Assay [1] addresses feline FcRn complex (FcRn-α subunit and β-microglobulin), biotin labeled (feline). Put plainly: SPR, pH 6. (SPR reads the build-up and loss of mass on a sensor chip optically.)
Assay [2] shares this target. Put plainly: SPR, pH 7.4.

Where a chain is given by its changes, count along the chain named. Names and notes keep the numbering of the source.

B1: feline IgG1a H436Y (antibody, part only; not given: Variable domains, not shown: another chain or arm of the molecule)
constant: ASTTAPSVFPLAPSCGTTSGATVALACLVLGYFPEPVTVSWNSGALTSGVHTFPAVLQASGLYSLSSMVTVPSSRWLSDTFTCNVAHPPSNTKVDKTVRKTDHPPGPKPCDCPKCPPPEMLGGPSIFIFPPKPKDTLSISRTPEVTCLVVDLGPDDSDVQITWFVDNTQVYTAKTSPREEQFNSTYRVVSVLPILHQDWLKGKEFKCKVNSKSLPSPIERTISKAKGQPHEPQVYVLPPAQEELSRNKVSVTCLIKSFHPPDIAVEWEITGQPEPENNYRTTPPQLDSDGTYFVYSKLSVDRSHWQRGNTYTCSVSHEALHSHYTQKSLTQSPGK
For the molecule B1, the dissociation constant Kd (usually the equilibrium constant for the complex coming apart) was determined as 10.2 nM in assay [1] and 43.4 nM in assay [2].

B2: feline IgG1a S252F/S434H (antibody, part only; not given: Variable domains, not shown: another chain or arm of the molecule)
constant: B1 constant with S138F, S322H, Y324H
As to B2, the Kd in assay [1] was 1.69 nM; in assay [2], 18.1 nM.

B3: feline IgG1a D312P/S434Y (antibody, part only; not given: Variable domains, not shown: another chain or arm of the molecule)
constant: B1 constant with D198P, S322Y, Y324H
Take B3: the equilibrium dissociation constant (Kd) in assay [1] was determined as 22.6 nM; in assay [2], 1800 nM.

B4: feline IgG1a Q311W/D312P (antibody, part only; not given: Variable domains, not shown: another chain or arm of the molecule)
constant: B1 constant with Q197W, D198P, Y324H
On to B4, for which the Kd in assay [1] is 2.76 nM; in assay [2], 50.3 nM.

B5: feline IgG1a S254V (antibody, part only; not given: Variable domains, not shown: another chain or arm of the molecule)
constant: B1 constant with S140V, Y324H
B5: the Kd in assay [1] worked out at 9.91 nM; in assay [2], 49800 nM.

B6: feline IgG1a S254I (antibody, part only; not given: Variable domains, not shown: another chain or arm of the molecule)
constant: B1 constant with S140I, Y324H
Turning to B6, the dissociation constant Kd in assay [1] is 12.4 nM; in assay [2] it was 16100 nM.

B7: feline IgG1a S252R/S434H (antibody, part only; not given: Variable domains, not shown: another chain or arm of the molecule)
constant: B1 constant with S138R, S322H, Y324H
For B7, the Kd in assay [1] is 2.21 nM; in assay [2], 41.3 nM.

B8: feline IgG1a S254C (antibody, part only; not given: Variable domains, not shown: another chain or arm of the molecule)
constant: B1 constant with S140C, Y324H
Consider B8, for which the Kd in assay [1] was 44 nM; in assay [2], 2160 nM.

B9: feline IgG1a Q311Y (antibody, part only; not given: Variable domains, not shown: another chain or arm of the molecule)
constant: B1 constant with Q197Y, Y324H
For the molecule B9, the Kd is 5.53 nM in assay [1] and 41.4 nM in assay [2].

B10: feline IgG1a S434R (antibody, part only; not given: Variable domains, not shown: another chain or arm of the molecule)
constant: B1 constant with S322R, Y324H
On to B10, for which the results for the Kd in assay [1] and in assay [2] were 1.19 nM and 16.3 nM, respectively.

B11: feline IgG1a S252Y/S434H (antibody, part only; not given: Variable domains, not shown: another chain or arm of the molecule)
constant: B1 constant with S138Y, S322H, Y324H
B11: the Kd in assay [1] is 0.774 nM; in assay [2], 11.7 nM.

B12: feline IgG1a S252R (antibody, part only; not given: Variable domains, not shown: another chain or arm of the molecule)
constant: B1 constant with S138R, Y324H
Take B12: the Kd stood at 1.48 nM in assay [1] and 5.06 nM in assay [2].

B13: feline IgG1a Q311W (antibody, part only; not given: Variable domains, not shown: another chain or arm of the molecule)
constant: B1 constant with Q197W, Y324H
For B13, the Kd in assay [1] amounted to 4.18 nM; in assay [2], 207 nM.

B14: feline IgG1a L314K (antibody, part only; not given: variable domains and light chain, not shown: another chain or arm of the molecule)
constant: B1 constant with L200K, Y324H
Regarding B14, the results for the Kd in assay [1] and in assay [2] were 8.43 nM and 41.5 nM, respectively.

B15: feline IgG1a T256F (antibody, part only; not given: Variable domains, not shown: another chain or arm of the molecule)
constant: B1 constant with T142F, Y324H
Turning to B15, the Kd in assay [1] was 50.3 nM; in assay [2], 427 nM.

B16: feline IgG1a L314K/S434Y (antibody, part only; not given: Variable domains, not shown: another chain or arm of the molecule)
constant: B1 constant with L200K, S322Y, Y324H
As to B16, the Kd in assay [1] turned out to be 244 nM; in assay [2], 7430 nM.

B17: feline IgG1a S254P (antibody, part only; not given: Variable domains, not shown: another chain or arm of the molecule)
constant: B1 constant with S140P, Y324H
Consider B17, for which the dissociation constant Kd in assay [1] was 27.3 nM; in assay [2] it was 5690 nM.

These data come from patent US20240400708A1.
